The source of these data is patent publication EP4814018A2 (F. Hoffmann-La Roche AG, dated 2026).

Residue numbers refer to the chain shown, from its start.

Assay [1] concerns the target T1, human transferrin receptor (human, UniProt P02786 89-760).
T1 construct: also called huTfR; hTfR
The experiment in a line: BIAcore. On the technique in general: In SPR one partner is held on a chip, and binding of the other changes the refractive index at the surface.

Assay [2] addresses T2, cynomolgus transferrin receptor (cynomolgus, UniProt H9EXL1 89-760 (rhesus entry)).
T2 construct: also called cyTfR; Cyno TfR
The experiment in a line: BIAcore.

The target in assay [3] is T3, cynomolgus transferrin receptor on stably transfected CHO cells (cynomolgus).
T3 construct: whole, on cells; also called Cyno TfR-CHO; cyTfR (FACS)
The experiment in a line: FACS, cyno against human TfR CHO cells. (In flow cytometry, cells or beads pass a laser one at a time.)

For assay [4], the target named is T2, cynomolgus transferrin receptor. The experiment in a line: BIAcore T200, biotinylated TfR captured (Example 13), 25 °C.
The target in assay [5] is T3, cynomolgus transferrin receptor on …. The experiment in a line: FACS on cyTfR CHO cells.
Assay [6] addresses T2, cynomolgus transferrin receptor. The experiment in a line: BIAcore B4000, biotinylated TfR captured (Example 14), 25 °C.
Assay [7] has as its target T1, human transferrin receptor. The experiment in a line: SPR off-rate.

T1 sequence (P02786 89-760 limits assumed): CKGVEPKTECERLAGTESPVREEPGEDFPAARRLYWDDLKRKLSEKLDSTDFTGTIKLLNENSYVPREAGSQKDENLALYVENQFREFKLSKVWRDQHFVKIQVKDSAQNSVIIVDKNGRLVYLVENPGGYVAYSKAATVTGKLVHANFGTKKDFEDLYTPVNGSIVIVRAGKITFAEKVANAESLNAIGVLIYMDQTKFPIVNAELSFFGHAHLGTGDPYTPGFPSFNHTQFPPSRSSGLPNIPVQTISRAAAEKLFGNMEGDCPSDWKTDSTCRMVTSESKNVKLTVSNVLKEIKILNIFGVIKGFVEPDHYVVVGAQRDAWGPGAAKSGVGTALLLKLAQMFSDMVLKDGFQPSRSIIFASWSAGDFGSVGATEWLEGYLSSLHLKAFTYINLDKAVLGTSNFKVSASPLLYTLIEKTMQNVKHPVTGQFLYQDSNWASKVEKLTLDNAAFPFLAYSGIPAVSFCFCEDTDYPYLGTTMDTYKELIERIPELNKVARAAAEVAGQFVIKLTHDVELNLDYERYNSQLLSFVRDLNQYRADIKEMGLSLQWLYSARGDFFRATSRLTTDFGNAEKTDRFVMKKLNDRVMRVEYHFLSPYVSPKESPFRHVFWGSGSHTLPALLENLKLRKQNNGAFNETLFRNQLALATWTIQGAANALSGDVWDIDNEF
T2 sequence (chain, as listed by the source): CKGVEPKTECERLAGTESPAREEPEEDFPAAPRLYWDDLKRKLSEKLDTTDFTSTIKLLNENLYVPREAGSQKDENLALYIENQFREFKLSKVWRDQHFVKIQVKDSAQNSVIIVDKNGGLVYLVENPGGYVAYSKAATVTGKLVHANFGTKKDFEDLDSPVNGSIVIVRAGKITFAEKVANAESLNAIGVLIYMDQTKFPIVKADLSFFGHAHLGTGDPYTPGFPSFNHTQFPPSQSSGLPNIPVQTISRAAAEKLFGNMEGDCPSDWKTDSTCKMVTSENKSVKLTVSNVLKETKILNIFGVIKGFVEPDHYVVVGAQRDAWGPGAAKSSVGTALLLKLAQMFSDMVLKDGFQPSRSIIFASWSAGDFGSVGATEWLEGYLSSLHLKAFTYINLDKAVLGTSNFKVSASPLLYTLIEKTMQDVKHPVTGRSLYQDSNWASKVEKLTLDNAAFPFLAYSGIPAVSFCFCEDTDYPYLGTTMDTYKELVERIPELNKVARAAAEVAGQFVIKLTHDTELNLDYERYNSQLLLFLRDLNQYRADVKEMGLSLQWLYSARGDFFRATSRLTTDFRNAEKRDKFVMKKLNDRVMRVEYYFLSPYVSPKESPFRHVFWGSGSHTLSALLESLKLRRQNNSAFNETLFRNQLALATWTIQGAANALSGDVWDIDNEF

B1: clone-299 (antibody, V domains shown)
VH: QSMEESGGRLVTPGTPLTLTCTVSGFSLSSYAMSWVRQAPGKGLEWIGYIWSGGSTDYASWAKGRFTISKTSTTVDLKITSPTTEDTATYFCARRYGTSYPDYGDANGFDPWGPGTLVTVSS
VL: AYDMTQTPASVEVAVGGTVTIKCQASQSISSYLSWYQQKPGQRPKLLIYRASTLASGVSSRFKGSGSGTQFTLTISGVECADAATYYCQQCYSSSNVDNTFGGGTEVVVK
notes: Rabbit variable domains
As for B1, the “BIAcore t1/2” value in assay [1] is 19 min; in assay [2] it was 42 min. Besides, the “ratio EC50 Cyno/ human” value in assay [3] is 0.9. The “ratio max Cyno/ human” value in assay [3] stood at 1.

B2: murine anti-transferrin receptor antibody 128.1 (antibody, V domains shown)
VH: QVQLVQSGAEVKKPGASVKVSCKASGYTFTGYTMNWVRQAPGQGLEWMGRINPHNGGTDYAQKFQGRVTMTRDTSISTAYMELSRLRSDDTAVYYCARGYYYYSLDYWGQGTLVTVSS
VL: DIQMTQSPSSLSASVGDRVTITCRASSSIRYIHWYQQKPGKAPKRLIYDTSNLASGVPSRFSGSGSGTEFTLTISSLQPEDFATYYCHQRNSYPWTFGQGTRLEIK
Consider B2, for which, in assay [4], binding was put at a Kd of 136 nM; the off-rate constant (koff) – broadly, the first-order rate constant of dissociation – amounted to 0.0733 s⁻¹; the on-rate constant (kon) (as a rule, the second-order rate constant of association) stood at 541000 M⁻¹ s⁻¹. Besides, in assay [1], the “BIAcore t1/2” value was found to be 19 min. Further, the “BIAcore t1/2” value in assay [2] was 0.2 min. Also, in assay [5], the EC50 (as a rule, the concentration at which the effect is half-maximal) came to 0.314 µg/mL. The molecule also displayed a koff in assay [6] of 0.0778 s⁻¹. In addition, in assay [3], the “ratio EC50 Cyno/ human” value is 3.3 and the “ratio max Cyno/ human” value turned out to be 0.6.

B3: clone 494 VH 1 / VL 0 (mu) (antibody, V domains shown)
VH: QVQLVQSGAEVKKPGASVKVSCKASGFNIKDTYIHWVIQAPGQGLEWMGRIDPANGDTKSDPKFQVRVTITADTSTSTVYMELSSLRSEDTAVYYCVRDYLYPYYFDFWGQGTTVTVSS
VL: KIVMTQSPKSMSMSVGERVTLNCRASESVDTYVSWYQQKPEQSPELLIYGASNRYTGVPDRFTGSGSATDFTLTISSVQAEDLADYYCGQTYNYPLTFGAGTKLELKR
B3 had a koff in assay [7] of 0.000137 s⁻¹.

B4: clone 494 VH 3 / VL 4 (antibody, V domains shown)
VH: B3 VH with V66G
VL: KIVLTQSPGTLSLSPGERATLSCRASESVDTYVSWYQQKPGQAPRLLIYGASNRYTGIPDRFSGSGSGTDFTLTISRLEPEDFADYYCGQTYNYPLTFGQGTKLEI
Take B4: in assay [7], the off-rate (koff) was found to be 0.000683 s⁻¹.

B5: clone 494 VH 4 / VL 3 (antibody, V domains shown)
VH: B3 VH with A16S, V66G, T74E, V79A
VL: B4 VL with K1E, I58V
Molecule B5 yielded a dissociation rate constant (koff) in assay [7] of 0.000452 s⁻¹.

B6: clone 494 VH 2 / VL 0 (mu) (antibody, V domains shown)
VH: B3 VH with D61A
VL: B3 VL
As to B6, the off-rate constant (koff) in assay [7] was 0.000156 s⁻¹. Compared with the last molecule, the koff is about 2.9-fold lower.

B7: clone 494 VH 2 / VL 1 (antibody, V domains shown)
VH: B3 VH with D61A
VL: KIQMTQSPSSLSASVGDRVTITCRASESVDTYVSWYQQKPGKAPKLLIYGASNRYTGVPSRFSGSGSGTDFTLTISSLQPEDFADYYCGQTYNYPLTFGQGTKLEI
For the molecule B7, the koff in assay [7] turned out to be 0.000454 s⁻¹.

B8: clone 494 VH 3 / VL 1 (antibody, V domains shown)
VH: B3 VH with V66G
VL: B7 VL
Molecule B8 gave an off-rate (koff) in assay [7] of 0.000476 s⁻¹. The koff values of the last two molecules are within 1.5-fold of each other.

B9: clone 494 VH 4 / VL 1 (antibody, V domains shown)
VH: B3 VH with A16S, V66G, T74E, V79A
VL: B7 VL
Turning to B9, the off-rate (koff) in assay [7] turned out to be 0.000448 s⁻¹.

B10: clone 494 VH 2 / VL 3 (antibody, V domains shown)
VH: B3 VH with D61A
VL: B4 VL with K1E, I58V
In the case of B10, the off-rate constant (koff) in assay [7] was 0.00043 s⁻¹.

B11: clone 494 VH 3 / VL 0 (mu) (antibody, V domains shown)
VH: B3 VH with V66G
VL: B3 VL
The molecule B11 registered an off-rate constant (koff) in assay [7] of 0.000148 s⁻¹. Against the preceding molecule, the koff is about 2.9-fold lower.

B12: clone 494 VH 1 / VL 4 (antibody, V domains shown)
VH: B3 VH
VL: B4 VL
In turn, B12 showed a dissociation rate constant (koff) in assay [7] of 0.000657 s⁻¹.

B13: clone 494 VH 1 / VL 3 (antibody, V domains shown)
VH: B3 VH
VL: B4 VL with K1E, I58V
In assay [7], B13 yielded a dissociation rate constant (koff) of 0.000386 s⁻¹.

B14: clone 494 VH 3 / VL 2 (antibody, V domains shown)
VH: B3 VH with V66G
VL: B4 VL with I58V
The molecule B14 had a koff in assay [7] of 0.000415 s⁻¹.

B15: clone 494 VH 2 / VL 4 (antibody, V domains shown)
VH: B3 VH with D61A
VL: B4 VL
With B15, the off-rate constant (koff) in assay [7] is 0.000703 s⁻¹.

B16: clone 494 VH 4 / VL 2 (antibody, V domains shown)
VH: B3 VH with A16S, V66G, T74E, V79A
VL: B4 VL with I58V
B16 had a koff in assay [7] of 0.000438 s⁻¹.

B17: clone 494 VH 4 / VL 0 (mu) (antibody, V domains shown)
VH: B3 VH with A16S, V66G, T74E, V79A
VL: B3 VL
B17 showed a koff in assay [7] of 0.000177 s⁻¹.

B18: clone 494 VH 1 / VL 2 (antibody, V domains shown)
VH: B3 VH
VL: B4 VL with I58V
In assay [7], B18 returned a koff of 0.000399 s⁻¹.

B19: clone 494 VH 0 (mu) / VL 1 (antibody, V domains shown)
VH: EVQLQQSGAVLVKPGASVKLSCPASGFNIKDTYIHWVIQRPEQGLEWIGRIDPANGDTKCDPKFQVKATITADTSSNTAYLQLSSLTSEDTAVYFCVRDYLYPYYFDFWGQGTTLTVSS
VL: B7 VL
B19 registered a koff in assay [7] of 0.00037 s⁻¹.

B20: clone 494 VH 0 (mu) / VL 2 (antibody, V domains shown)
VH: B19 VH
VL: B4 VL with I58V
In assay [7], B20 came in with an off-rate constant (koff) of 0.000364 s⁻¹.

B21: clone 494 VH 0 (mu) / VL 3 (antibody, V domains shown)
VH: B19 VH
VL: B4 VL with K1E, I58V
Regarding B21, the koff in assay [7] is 0.000339 s⁻¹.

B22: clone 494 VH 0 (mu) / VL 4 (antibody, V domains shown)
VH: B19 VH
VL: B4 VL
B22: the koff in assay [7] worked out at 0.000542 s⁻¹.
